Laboratory results from patent EP4786492A1.
Substitutions are numbered along the chain they refer to.

B1: Hab013VL2VH2a-hFc (scFv, part only; not given: scFv linker and human IgG1 Fc, V domains shown, not shown: another chain or arm of the molecule; a dimerising Fc or GST; small tags and cut ends)
VL: EIVLTQSPATLSLSPGERATLSCRASKSVSTSGFSYMHWYQQKPGQPPRLLIYLASNLESGIPARFSGSGSGTDFTLTISSLEPEDFAVYYCQHSRELPFTFGQGTKLEIK
VH: EVQLVQSGAEVKKPGSSVKVSCKASGYAFSNYWINWVRQAPGQGLEWMGQINPGDGDTIYNSKFKGRVTITADKSTSTAYMELSSLRSEDTAVYYCEREGRNYGDFAYWGQGTTVTVSS
B2: Hab009VL3aVH1-hFc (scFv, part only; not given: VL-VH linker and human IgG1 Fc, V domains shown, not shown: another chain or arm of the molecule; a dimerising Fc or GST; small tags and cut ends)
VL: DIVMTQSPLSLPVTPGEPASISCRASQTISDYLHWYLQKSHQSPQLLIKYASQSISGVPDRFSGSGSGTDFTLKISRVEAEDVGVYYCQQGHSFPLTFGQGTKLEIK
VH: EVQLVQSGAEVKKPGASVKVSCKASGYTFTSYWMHWVRQAPGQRLEWMGTIYPGNSDTRYNQKFKDRVTITADTSASTAYMELSSLRSEDTAVYYCTRSYDYGDLDYWGQGTTVTVSS
B3: Hab008L3H2a-hFc (scFv, part only; not given: VL-VH linker and human IgG1 Fc, V domains shown, not shown: another chain or arm of the molecule; a dimerising Fc or GST; small tags and cut ends)
VL: DIVMTQSPDSLAVSLGERATINCKASQNVGTAVAWYQQKPGQSPKLLIFSASIRYTGVPDRFSGSGSGTDFTLTISSLQAEDVAVYYCQQYSSSPYTFGGGTKVEIK
VH: EVQLVQSGAEVKKPGASVKVSCKASGYTFTDYYMNWVRQAPGQRLEWMGIINPYNSGTSYNQKFRGRVTLTVDKSASTAYMELSSLRSEDTAVYYCSRYDYDYDVEGAMDYWGQGTTVTVSS
B4: Hab008L3H5-hFc (scFv, part only; not given: scFv linker and human IgG1 Fc, V domains shown, not shown: another chain or arm of the molecule; a dimerising Fc or GST; small tags and cut ends)
VL: B3 VL
VH: B3 VH with Q39R, S56G, L70I

Target: mouse DLL3 on CHO-K1-mDLL3 cells (mouse) (UniProt O88516)
Sequence (O88516 other isoform, or with tags, fused parts or gaps limits assumed): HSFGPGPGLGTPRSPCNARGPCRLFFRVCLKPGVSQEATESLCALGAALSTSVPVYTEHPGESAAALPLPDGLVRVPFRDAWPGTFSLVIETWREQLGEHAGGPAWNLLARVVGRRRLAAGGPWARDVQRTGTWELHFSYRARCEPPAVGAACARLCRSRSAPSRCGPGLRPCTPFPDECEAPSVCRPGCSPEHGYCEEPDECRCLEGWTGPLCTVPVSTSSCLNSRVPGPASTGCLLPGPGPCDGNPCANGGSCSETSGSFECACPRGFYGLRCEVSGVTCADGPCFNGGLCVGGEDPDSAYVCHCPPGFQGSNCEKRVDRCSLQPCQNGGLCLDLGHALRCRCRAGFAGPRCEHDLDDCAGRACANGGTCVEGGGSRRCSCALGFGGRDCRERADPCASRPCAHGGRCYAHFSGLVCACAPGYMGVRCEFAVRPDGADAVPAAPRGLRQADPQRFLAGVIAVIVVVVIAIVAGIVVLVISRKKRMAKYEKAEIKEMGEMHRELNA
Assay: FACS, CHO-K1-mDLL3 cells, 0.16 nM antibody

Binder | MFI [MFI]
B1 | 313
B2 | 345

Target: DLL3 endogenously expressed on NCI-H82 cells (UniProt Q9NYJ7)
Sequence (Q9NYJ7 27-618): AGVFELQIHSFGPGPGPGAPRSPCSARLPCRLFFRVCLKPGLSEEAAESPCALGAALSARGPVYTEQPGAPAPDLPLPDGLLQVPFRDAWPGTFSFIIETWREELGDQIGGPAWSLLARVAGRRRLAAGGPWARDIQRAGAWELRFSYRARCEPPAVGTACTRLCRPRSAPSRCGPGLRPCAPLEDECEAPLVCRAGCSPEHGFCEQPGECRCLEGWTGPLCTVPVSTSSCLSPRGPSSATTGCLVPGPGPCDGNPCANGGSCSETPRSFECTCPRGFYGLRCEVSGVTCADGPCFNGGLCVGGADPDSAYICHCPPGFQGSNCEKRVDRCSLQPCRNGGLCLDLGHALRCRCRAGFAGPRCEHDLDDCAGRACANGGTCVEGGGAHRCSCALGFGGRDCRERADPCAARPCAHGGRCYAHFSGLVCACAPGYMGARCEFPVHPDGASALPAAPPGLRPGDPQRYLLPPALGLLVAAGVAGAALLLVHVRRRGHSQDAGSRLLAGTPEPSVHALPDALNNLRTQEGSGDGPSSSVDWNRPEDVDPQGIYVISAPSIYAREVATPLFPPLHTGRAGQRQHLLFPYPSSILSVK
Assay: FACS on NCI-H82 cells; antibody 4 nM

Binder | MFI
B1 | 1030
B3 | 307
B4 | 388
B2 | 738

Target: monkey DLL3 on CHO-K1-cyno DLL3 cells (cynomolgus monkey)
Sequence (chain, as listed by the source limits assumed): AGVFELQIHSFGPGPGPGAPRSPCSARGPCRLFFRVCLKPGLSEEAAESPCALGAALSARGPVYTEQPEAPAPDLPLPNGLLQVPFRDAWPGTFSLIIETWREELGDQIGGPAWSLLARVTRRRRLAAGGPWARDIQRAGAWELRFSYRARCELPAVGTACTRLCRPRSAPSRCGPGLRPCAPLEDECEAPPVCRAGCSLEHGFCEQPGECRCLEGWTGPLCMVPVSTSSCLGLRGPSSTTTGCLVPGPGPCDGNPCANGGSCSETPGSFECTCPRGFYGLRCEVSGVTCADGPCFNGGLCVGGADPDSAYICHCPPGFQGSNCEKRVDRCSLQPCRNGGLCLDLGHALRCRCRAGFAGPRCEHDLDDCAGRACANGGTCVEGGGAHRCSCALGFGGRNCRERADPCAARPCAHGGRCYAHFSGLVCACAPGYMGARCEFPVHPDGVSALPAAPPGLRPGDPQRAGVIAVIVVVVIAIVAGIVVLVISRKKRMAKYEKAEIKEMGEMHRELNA
Assay: FACS, CHO-K1-cyno DLL3 cells, 0.8 nM antibody

Binder | MFI [MFI]
B3 | 3980
B4 | 3470
B2 | 24700

Target: mouse DLL3 on CHO-K1-mDLL3 cells (mouse) (UniProt O88516)
Assay: FACS, CHO-K1-mDLL3 cells, 0.0064 nM antibody

Binder | MFI [MFI]
B1 | 125
B2 | 269

Target: human DLL3 protein expressed on CHO-K1 recombinant cells (human DLL3 extracellular segment fused to EpCAM transmembrane and intracellular regions) (human) (UniProt Q9NYJ7)
Sequence (Q9NYJ7 other isoform, or with tags, fused parts or gaps limits assumed): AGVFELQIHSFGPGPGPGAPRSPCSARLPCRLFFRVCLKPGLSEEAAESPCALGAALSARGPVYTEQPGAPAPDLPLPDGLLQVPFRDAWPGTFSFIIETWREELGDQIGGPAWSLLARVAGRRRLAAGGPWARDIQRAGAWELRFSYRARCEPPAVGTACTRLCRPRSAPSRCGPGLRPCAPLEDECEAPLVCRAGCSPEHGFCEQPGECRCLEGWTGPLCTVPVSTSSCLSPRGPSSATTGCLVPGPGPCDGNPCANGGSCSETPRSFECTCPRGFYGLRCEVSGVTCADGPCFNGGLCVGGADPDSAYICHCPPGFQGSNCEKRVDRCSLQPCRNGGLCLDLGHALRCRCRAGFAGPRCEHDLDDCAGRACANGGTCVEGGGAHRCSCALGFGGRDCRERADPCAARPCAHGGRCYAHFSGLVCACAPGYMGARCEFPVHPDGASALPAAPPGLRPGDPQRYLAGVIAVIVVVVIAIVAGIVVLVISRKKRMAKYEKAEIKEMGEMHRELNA
Assay: FACS, CHO-K1 hDLL3 cells, 100 nM antibody

Binder | MFI [MFI]
B1 | 19500
B3 | 7600
B4 | 8950

Target: human DLL3 protein expressed on CHO-K1 recombinant cells (human DLL3 extracellular segment fused to EpCAM transmembrane and intracellular regions) (human) (UniProt Q9NYJ7)
Assay: FACS, CHO-K1 hDLL3 cells, 0.16 nM antibody

Binder | MFI [MFI]
B1 | 3190
B3 | 715
B4 | 671

Target: mouse DLL3 on CHO-K1-mDLL3 cells (mouse) (UniProt O88516)
Assay: FACS, CHO-K1-mDLL3 cells, 100 nM antibody

Binder | MFI [MFI]
B1 | 764
B2 | 553

Target: DLL3 endogenously expressed on NCI-H82 cells (UniProt Q9NYJ7)
Assay: FACS on NCI-H82 cells; antibody 0.16 nM

Binder | MFI
B1 | 670
B3 | 97
B4 | 102
B2 | 669

Target: mouse DLL3 on CHO-K1-mDLL3 cells (mouse) (UniProt O88516)
Assay: FACS, CHO-K1-mDLL3 cells, 20 nM antibody

Binder | MFI [MFI]
B1 | 655
B2 | 491

Target: mouse DLL3 on CHO-K1-mDLL3 cells (mouse) (UniProt O88516)
Assay: FACS, CHO-K1-mDLL3 cells, 0.00128 nM antibody

Binder | MFI [MFI]
B1 | 113
B2 | 190

Target: mouse DLL3 on CHO-K1-mDLL3 cells (mouse) (UniProt O88516)
Assay: FACS, CHO-K1-mDLL3 cells, 0.032 nM antibody

Binder | MFI [MFI]
B1 | 179
B2 | 287

Target: monkey DLL3 on CHO-K1-cyno DLL3 cells (cynomolgus monkey)
Assay: FACS, CHO-K1-cyno DLL3 cells, 0.032 nM antibody

Binder | MFI [MFI]
B3 | 329
B4 | 252
B2 | 4020

Target: DLL3 endogenously expressed on NCI-H82 cells (UniProt Q9NYJ7)
Assay: FACS on NCI-H82 cells; antibody 0.8 nM

Binder | MFI
B1 | 831
B3 | 135
B4 | 152
B2 | 709

Target: human DLL3 protein expressed on CHO-K1 recombinant cells (human DLL3 extracellular segment fused to EpCAM transmembrane and intracellular regions) (human) (UniProt Q9NYJ7)
Assay: FACS, CHO-K1 hDLL3 cells, 0.032 nM antibody

Binder | MFI [MFI]
B1 | 789
B3 | 240
B4 | 235

Target: monkey DLL3 on CHO-K1-cyno DLL3 cells (cynomolgus monkey)
Assay: FACS, CHO-K1-cyno DLL3 cells, 100 nM antibody

Binder | MFI [MFI]
B3 | 21400
B4 | 21600
B2 | 29600

Target: monkey DLL3 on CHO-K1-cyno DLL3 cells (cynomolgus monkey)
Assay: FACS, CHO-K1-cyno DLL3 cells, 0.0064 nM antibody

Binder | MFI [MFI]
B3 | 148
B4 | 142
B2 | 3760

Target: human delta-like ligand 3 (DLL3) on SHP77 cells (human) (UniProt Q9NYJ7)
Sequence (Q9NYJ7 27-618, stated change not applied): as the sequence (Q9NYJ7 27-618) above
Assay: FACS on SHP77 cells

Binder | MFI at 0.00128 nM [MFI] | MFI at 0.0064 nM [MFI] | MFI at 0.032 nM [MFI] | MFI at 0.16 nM [MFI] | MFI at 0.8 nM [MFI] | MFI at 4 nM [MFI] | MFI at 20 nM [MFI] | MFI at 100 nM [MFI]
B1 | 116 | 131 | 183 | 323 | 541 | 719 | 876 | 1140
B3 | 117 | 117 | 121 | 129 | 168 | 255 | 426 | 613
B4 | 117 | 117 | 122 | 133 | 194 | 330 | 634 | 974

Target: human DLL1 protein (Acro, Cat. No. DL1-H52H8) (human) (UniProt O00548)
Sequence (O00548 18-540 limits assumed): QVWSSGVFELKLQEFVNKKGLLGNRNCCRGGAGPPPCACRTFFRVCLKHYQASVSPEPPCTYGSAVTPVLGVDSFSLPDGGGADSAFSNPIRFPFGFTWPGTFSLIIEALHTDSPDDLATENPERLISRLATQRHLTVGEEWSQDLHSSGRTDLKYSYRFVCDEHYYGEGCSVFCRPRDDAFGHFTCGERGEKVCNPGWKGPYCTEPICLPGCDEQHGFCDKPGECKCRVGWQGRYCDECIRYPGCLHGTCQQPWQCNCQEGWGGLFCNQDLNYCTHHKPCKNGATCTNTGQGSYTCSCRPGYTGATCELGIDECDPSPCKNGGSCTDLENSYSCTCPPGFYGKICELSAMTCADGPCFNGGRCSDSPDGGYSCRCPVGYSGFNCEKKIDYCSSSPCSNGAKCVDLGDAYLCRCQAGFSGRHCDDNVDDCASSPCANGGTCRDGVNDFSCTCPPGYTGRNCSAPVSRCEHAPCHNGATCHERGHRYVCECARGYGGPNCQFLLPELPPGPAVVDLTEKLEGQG
Assay: ELISA, coated hDLL1; maximum over 0.1, 1, 10, 100 nM antibody

Binder | Emax of OD450 nm binding value [OD450 nm]
B1 | 0.05
B3 | 0.04
B4 | 0.11
B2 | 0.06

Target: monkey DLL3 on CHO-K1-cyno DLL3 cells (cynomolgus monkey)
Assay: FACS, CHO-K1-cyno DLL3 cells, 0.16 nM antibody

Binder | MFI [MFI]
B3 | 928
B4 | 724
B2 | 10600

Target: human DLL3 protein expressed on CHO-K1 recombinant cells (human DLL3 extracellular segment fused to EpCAM transmembrane and intracellular regions) (human) (UniProt Q9NYJ7)
Assay: FACS, CHO-K1 hDLL3 cells, 4 nM antibody

Binder | MFI [MFI]
B1 | 14900
B3 | 7190
B4 | 7140

Target: human DLL3 protein expressed on CHO-K1 recombinant cells (human DLL3 extracellular segment fused to EpCAM transmembrane and intracellular regions) (human) (UniProt Q9NYJ7)
Assay: FACS, CHO-K1 hDLL3 cells, 0.0064 nM antibody

Binder | MFI [MFI]
B1 | 270
B3 | 126
B4 | 131

Target: DLL3 endogenously expressed on NCI-H82 cells (UniProt Q9NYJ7)
Assay: FACS on NCI-H82 cells; antibody 0.0064 nM

Binder | MFI
B1 | 185
B3 | 89
B4 | 90
B2 | 179

Target: DLL3 endogenously expressed on NCI-H82 cells (UniProt Q9NYJ7)
Assay: FACS on NCI-H82 cells; antibody 0.00128 nM

Binder | MFI
B1 | 130
B3 | 85
B4 | 99
B2 | 123

Target: mouse DLL3 on CHO-K1-mDLL3 cells (mouse) (UniProt O88516)
Assay: FACS, CHO-K1-mDLL3 cells, 4 nM antibody

Binder | MFI [MFI]
B1 | 557
B2 | 458

Target: monkey DLL3 on CHO-K1-cyno DLL3 cells (cynomolgus monkey)
Assay: FACS, CHO-K1-cyno DLL3 cells, 0.00128 nM antibody

Binder | MFI [MFI]
B3 | 103
B4 | 103
B2 | 1450

Target: human DLL3 protein (extracellular segment, His tag) (human) (UniProt Q9NYJ7)
Sequence (Q9NYJ7 27-492): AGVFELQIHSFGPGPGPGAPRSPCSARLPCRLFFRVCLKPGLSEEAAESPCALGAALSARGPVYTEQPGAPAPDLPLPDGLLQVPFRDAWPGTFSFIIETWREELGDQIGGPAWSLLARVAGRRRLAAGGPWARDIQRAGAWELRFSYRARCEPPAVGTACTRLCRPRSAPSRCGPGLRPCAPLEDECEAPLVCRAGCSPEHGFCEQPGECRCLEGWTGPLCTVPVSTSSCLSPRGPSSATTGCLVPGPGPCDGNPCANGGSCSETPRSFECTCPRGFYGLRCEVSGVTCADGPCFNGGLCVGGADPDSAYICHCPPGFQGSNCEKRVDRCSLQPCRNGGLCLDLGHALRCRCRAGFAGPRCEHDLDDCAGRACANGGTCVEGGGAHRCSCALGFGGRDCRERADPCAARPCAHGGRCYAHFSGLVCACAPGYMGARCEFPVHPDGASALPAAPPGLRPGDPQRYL
Assay: SPR (Biacore 8K), antibody captured on Protein A chip, DLL3 antigen in solution, 1:1 Langmuir fit

Binder | Kd [nM] | koff [s⁻¹] | kon [M⁻¹ s⁻¹]
B1 | 0.112 | 0.000371 | 3.32e+06
B3 | 0.529 | 0.000405 | 766000
B4 | 0.902 | 0.000312 | 345000
B2 | 0.304 | 0.00175 | 5.76e+06

Target: DLL3 endogenously expressed on NCI-H82 cells (UniProt Q9NYJ7)
Assay: FACS on NCI-H82 cells; antibody 100 nM

Binder | MFI
B1 | 1520
B3 | 550
B4 | 1340
B2 | 872

Target: human DLL3 protein expressed on CHO-K1 recombinant cells (human DLL3 extracellular segment fused to EpCAM transmembrane and intracellular regions) (human) (UniProt Q9NYJ7)
Assay: FACS, CHO-K1 hDLL3 cells, 0.00128 nM antibody

Binder | MFI [MFI]
B1 | 164
B3 | 98
B4 | 100

Target: monkey DLL3 on CHO-K1-cyno DLL3 cells (cynomolgus monkey)
Assay: FACS, CHO-K1-cyno DLL3 cells, 20 nM antibody

Binder | MFI [MFI]
B3 | 21300
B4 | 20300
B2 | 30000

Target: monkey DLL3 on CHO-K1-cyno DLL3 cells (cynomolgus monkey)
Assay: FACS, CHO-K1-cyno DLL3 cells, 4 nM antibody

Binder | MFI [MFI]
B3 | 14800
B4 | 12900
B2 | 30000

Target: mouse DLL3 on CHO-K1-mDLL3 cells (mouse) (UniProt O88516)
Assay: FACS, CHO-K1-mDLL3 cells, 0.8 nM antibody

Binder | MFI [MFI]
B1 | 463
B2 | 413

Target: DLL3 endogenously expressed on NCI-H82 cells (UniProt Q9NYJ7)
Assay: FACS on NCI-H82 cells; antibody 20 nM

Binder | MFI
B1 | 1170
B3 | 448
B4 | 674
B2 | 796

Target: human DLL4 protein (Acro, Cat. No. DL4-H5227) (human) (UniProt Q9NR61)
Sequence (Q9NR61 27-524 limits assumed): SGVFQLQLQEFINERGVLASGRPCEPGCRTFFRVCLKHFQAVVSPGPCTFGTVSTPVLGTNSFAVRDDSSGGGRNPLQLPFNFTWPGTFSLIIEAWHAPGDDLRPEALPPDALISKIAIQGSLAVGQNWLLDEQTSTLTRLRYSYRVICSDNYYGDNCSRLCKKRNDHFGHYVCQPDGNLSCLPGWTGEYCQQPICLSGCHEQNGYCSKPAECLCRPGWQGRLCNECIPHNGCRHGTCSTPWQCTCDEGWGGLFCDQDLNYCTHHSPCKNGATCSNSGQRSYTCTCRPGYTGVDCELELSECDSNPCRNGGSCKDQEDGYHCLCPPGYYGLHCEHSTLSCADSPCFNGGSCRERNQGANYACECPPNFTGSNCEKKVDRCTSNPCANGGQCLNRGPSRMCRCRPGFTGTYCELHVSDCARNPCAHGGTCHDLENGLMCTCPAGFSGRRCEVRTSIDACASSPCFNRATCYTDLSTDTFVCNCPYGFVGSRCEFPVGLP
Assay: ELISA, coated hDLL4; maximum over 0.1, 1, 10, 100 nM antibody

Binder | Emax of OD450 nm binding value [OD450 nm]
B1 | 0.05
B3 | 0.04
B4 | 0.18
B2 | 0.06

Target: human DLL3 protein expressed on CHO-K1 recombinant cells (human DLL3 extracellular segment fused to EpCAM transmembrane and intracellular regions) (human) (UniProt Q9NYJ7)
Assay: FACS, CHO-K1 hDLL3 cells, 20 nM antibody

Binder | MFI [MFI]
B1 | 16300
B3 | 8200
B4 | 8320

Target: human DLL3 protein expressed on CHO-K1 recombinant cells (human DLL3 extracellular segment fused to EpCAM transmembrane and intracellular regions) (human) (UniProt Q9NYJ7)
Assay: FACS, CHO-K1 hDLL3 cells, 0.8 nM antibody

Binder | MFI [MFI]
B1 | 11200
B3 | 2700
B4 | 2370

Target: DLL3 endogenously expressed on NCI-H82 cells (UniProt Q9NYJ7)
Assay: FACS on NCI-H82 cells; antibody 0.032 nM

Binder | MFI
B1 | 356
B3 | 90
B4 | 91
B2 | 371
